Assay results reported in US20250213627A1, “RECOMBINANT MICROORGANISM-BASED METHODS AND COMPOSITIONS FOR TREATMENT OF DISEASE” (Baylor College of Medicine, priority 2021, published 2025).

Key:
rat IgG = assay: ELISA positive control, wells coated with 1 µg/ml rat IgG, anti-rat IgG-HRP and TMB
[1] = biological target: Kv1.3 potassium channel (species not stated for this experiment); assay: cell-based or functional assay

In the case of anti-rat IgG-HRP (antibody), the reading at 450 nm (rat IgG) is reported as 3.3 OD 450 nm.
“HA-tagged ShK-235 secreted by LrS235-HA (peptide)” was tested, and the block of peak Kv1.3 currents by culture supernatant (patch-clamp) [1] was 25%.
